Reference: PMC6669903 (Neuron, 2019)

Tested on: Tiam1/CaMKII complex
Format: cell-based
Details: bath application (AP5, KN-93) or cotransfection (CaMKIIN)

B1: CaMKIIN: endogenous CaMKII inhibitor protein, cotransfected (protein)
chain: MSEILPYGEDKMGRFGADPEGSDLSFSCRLQDTNSFFAGNQAKRPPKLGQIGRAKRVVIEDDRIDDVLKGMGEKPPSGV
effect on Tiam1/CaMKII interaction after sLTP induction: blocked
